{"source": "patent US20110015122", "about": "“[…] B VIRUS-BINDING POLYPEPTIDES AND METHODS OF USE […]” (published 2011)", "conditions_in_all_cases": "tags: MBP fusion (pMAL); label: 5'-biotin sense strand (SPR)", "key": {"ZFPb": {"molecular_target": "ZFPb (synthetic)", "sequence (chain, as listed by the source)": "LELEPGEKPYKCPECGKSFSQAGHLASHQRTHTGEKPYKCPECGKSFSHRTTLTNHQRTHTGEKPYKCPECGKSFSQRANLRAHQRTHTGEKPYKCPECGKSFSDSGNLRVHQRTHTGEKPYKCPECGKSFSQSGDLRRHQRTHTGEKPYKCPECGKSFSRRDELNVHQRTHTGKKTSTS", "experiment": "SPR; HBS-EP, 1:1 with drifting baseline"}, "ZFPc": {"molecular_target": "ZFPc (synthetic)", "sequence (chain, as listed by the source)": "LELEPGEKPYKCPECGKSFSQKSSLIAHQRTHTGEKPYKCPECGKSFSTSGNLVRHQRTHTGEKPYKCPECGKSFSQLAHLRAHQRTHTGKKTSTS", "experiment": "SPR; HBS-EP, 1:1 with drifting baseline"}, "ZFPf": {"molecular_target": "ZFPf (synthetic)", "sequence (chain, as listed by the source)": "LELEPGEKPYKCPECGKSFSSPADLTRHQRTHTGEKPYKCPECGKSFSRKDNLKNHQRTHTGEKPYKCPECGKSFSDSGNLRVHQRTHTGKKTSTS", "experiment": "SPR; HBS-EP, 1:1 Langmuir"}, "ZFPa": {"molecular_target": "ZFPa (synthetic)", "sequence (chain, as listed by the source)": "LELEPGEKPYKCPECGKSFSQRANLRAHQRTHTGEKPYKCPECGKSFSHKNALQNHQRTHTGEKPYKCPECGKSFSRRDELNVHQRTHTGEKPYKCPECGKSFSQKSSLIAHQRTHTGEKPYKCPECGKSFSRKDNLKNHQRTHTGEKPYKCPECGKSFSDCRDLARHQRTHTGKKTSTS", "experiment": "SPR; HBS-EP, 1:1 with drifting baseline"}, "ZFPe": {"molecular_target": "ZFPe (synthetic)", "sequence (chain, as listed by the source)": "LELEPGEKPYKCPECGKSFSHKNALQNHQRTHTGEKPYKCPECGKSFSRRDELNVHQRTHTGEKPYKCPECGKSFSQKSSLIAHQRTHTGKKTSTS", "experiment": "SPR; HBS-EP; text elsewhere calls ZFPe the picomolar binder"}, "ZFPk": {"molecular_target": "ZFPk (synthetic)", "sequence (chain, as listed by the source)": "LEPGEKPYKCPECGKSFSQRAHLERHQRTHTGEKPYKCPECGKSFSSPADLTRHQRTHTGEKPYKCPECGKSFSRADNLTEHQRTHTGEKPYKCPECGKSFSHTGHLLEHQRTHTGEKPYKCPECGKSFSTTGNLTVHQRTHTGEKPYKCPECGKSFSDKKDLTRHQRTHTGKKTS", "experiment": "SPR; HBS-EP"}, "ZFPr": {"molecular_target": "ZFPr (synthetic)", "sequence (chain, as listed by the source)": "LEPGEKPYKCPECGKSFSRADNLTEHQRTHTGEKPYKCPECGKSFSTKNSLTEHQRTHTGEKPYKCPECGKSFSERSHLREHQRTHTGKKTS", "experiment": "SPR; HBS-EP; EMSA na"}, "ZFPd": {"molecular_target": "ZFPd (synthetic)", "sequence (chain, as listed by the source)": "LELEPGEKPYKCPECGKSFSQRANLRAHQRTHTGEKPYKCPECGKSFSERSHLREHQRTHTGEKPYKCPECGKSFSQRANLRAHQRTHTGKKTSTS", "experiment": "SPR; HBS-EP; text elsewhere calls ZFPe the picomolar binder"}, "ZFPq": {"molecular_target": "ZFPq (synthetic)", "sequence (chain, as listed by the source)": "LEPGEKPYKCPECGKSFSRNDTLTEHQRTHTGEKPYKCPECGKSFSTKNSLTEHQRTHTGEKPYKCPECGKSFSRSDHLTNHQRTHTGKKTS", "experiment": "SPR; HBS-EP; EMSA na"}, "ZFPn": {"molecular_target": "ZFPn (synthetic)", "sequence (chain, as listed by the source)": "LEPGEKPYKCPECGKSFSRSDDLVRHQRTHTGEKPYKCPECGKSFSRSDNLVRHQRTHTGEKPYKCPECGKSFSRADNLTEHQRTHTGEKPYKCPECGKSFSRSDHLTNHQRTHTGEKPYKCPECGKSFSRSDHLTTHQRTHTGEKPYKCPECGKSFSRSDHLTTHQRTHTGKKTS", "experiment": "SPR; HBS-EP"}, "ZFPt": {"molecular_target": "ZFPt (synthetic)", "sequence (chain, as listed by the source)": "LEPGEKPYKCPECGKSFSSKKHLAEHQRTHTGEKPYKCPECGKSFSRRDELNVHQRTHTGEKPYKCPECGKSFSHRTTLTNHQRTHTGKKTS", "experiment": "SPR; HBS-EP; EMSA na"}, "ZFPu": {"molecular_target": "ZFPu (synthetic)", "sequence (chain, as listed by the source)": "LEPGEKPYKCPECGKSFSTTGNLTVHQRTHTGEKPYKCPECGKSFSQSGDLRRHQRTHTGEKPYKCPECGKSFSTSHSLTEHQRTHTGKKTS", "experiment": "SPR; HBS-EP; EMSA na"}}, "data": [{"binder": "ZFPb target oligo (dsDNA) DNA 1: AGTACTATGGCAAACAAAAGTTGAAGTACT DNA 2: AGTACTTCAACTTTTGTTTGCCATAGTACT", "values": [{"measurement": "Kd", "setting": "ZFPb", "value": 40.2, "unit": "nM"}]}, {"binder": "ZFPc target oligo (dsDNA) DNA 1: AGTACTAGAGATATAAGTACT DNA 2: AGTACTTATATCTCTAGTACT", "values": [{"measurement": "Kd", "setting": "ZFPc", "value": 99, "unit": "nM"}]}, {"binder": "ZFPf target oligo (dsDNA) DNA 1: AGTACTAACAAGACAAGTACT DNA 2: AGTACTTGTCTTGTTAGTACT", "values": [{"measurement": "Kd", "setting": "ZFPf", "value": 185000, "unit": "nM"}]}, {"binder": "ZFPa target oligo (dsDNA) DNA 1: AGTACTGCCAAGATAATGATTAAAAGTACT DNA 2: AGTACTTTTAATCATTATCTTGGCAGTACT", "values": [{"measurement": "Kd", "setting": "ZFPa", "value": 12.3, "unit": "nM"}]}, {"binder": "ZFPe target oligo (dsDNA) DNA 1: AGTACTATAATGATTAGTACT DNA 2: AGTACTAATCATTATAGTACT", "values": [{"measurement": "Kd", "setting": "ZFPe", "value": 67.1, "unit": "nM"}]}, {"binder": "ZFPk target oligo (dsDNA) DNA 1: AGTACTACCAATCGCCAGACAGGAAGTACT DNA 2: AGTACTTCCTGTCTGGCGATTGGTAGTACT", "values": [{"measurement": "Kd", "setting": "ZFPk", "value": 5.14, "unit": "nM"}]}, {"binder": "ZFPr target oligo (dsDNA) DNA 1: AGTACTAGCCCTCAGAGTACT DNA 2: AGTACTCTGAGGGCTAGTACT", "values": [{"measurement": "Kd", "setting": "ZFPr", "value": 502, "unit": "nM"}]}, {"binder": "ZFPd target oligo (dsDNA) DNA 1: AGTACTAAAAGCAAAAGTACT DNA 2: AGTACTTTTGCTTTTAGTACT", "values": [{"measurement": "Kd", "setting": "ZFPd", "value": 0.471, "unit": "nM"}]}, {"binder": "ZFPq target oligo (dsDNA) DNA 1: AGTACTAGGCCTCCGAGTACT DNA 2: AGTACTCGGAGGCCTAGTACT", "values": [{"measurement": "Kd", "setting": "ZFPq", "value": 1290, "unit": "nM"}]}, {"binder": "ZFPn target oligo (dsDNA) DNA 1: AGTACTTGGTGGAGGCAGGAGGCGAGTACT DNA 2: AGTACTCGCCTCCTGCCTCCACCAAGTACT", "values": [{"measurement": "Kd", "setting": "ZFPn", "value": 69.4, "unit": "nM"}]}, {"binder": "ZFPt target oligo (dsDNA) DNA 1: AGTACTAGTATGCCCAGTACT DNA 2: AGTACTGGGCATACTAGTACT", "values": [{"measurement": "Kd", "setting": "ZFPt", "value": 1070, "unit": "nM"}]}, {"binder": "ZFPu target oligo (dsDNA) DNA 1: AGTACTCCAGCAAATAGTACT DNA 2: AGTACTATTTGCTGGAGTACT", "values": [{"measurement": "Kd", "setting": "ZFPu", "value": 2470, "unit": "nM"}]}]}
